This assay has as its target T1, GST-ACLY (UniProt P53396 1-1101).
T1 construct: ATP citrate lyase (ACLY), cloned into pGEX-4T1; also called GST-ACLY protein; source: E. coli BL21 (DE3), purified (Glutathione Sepharose 4B)
T1 sequence (looked up): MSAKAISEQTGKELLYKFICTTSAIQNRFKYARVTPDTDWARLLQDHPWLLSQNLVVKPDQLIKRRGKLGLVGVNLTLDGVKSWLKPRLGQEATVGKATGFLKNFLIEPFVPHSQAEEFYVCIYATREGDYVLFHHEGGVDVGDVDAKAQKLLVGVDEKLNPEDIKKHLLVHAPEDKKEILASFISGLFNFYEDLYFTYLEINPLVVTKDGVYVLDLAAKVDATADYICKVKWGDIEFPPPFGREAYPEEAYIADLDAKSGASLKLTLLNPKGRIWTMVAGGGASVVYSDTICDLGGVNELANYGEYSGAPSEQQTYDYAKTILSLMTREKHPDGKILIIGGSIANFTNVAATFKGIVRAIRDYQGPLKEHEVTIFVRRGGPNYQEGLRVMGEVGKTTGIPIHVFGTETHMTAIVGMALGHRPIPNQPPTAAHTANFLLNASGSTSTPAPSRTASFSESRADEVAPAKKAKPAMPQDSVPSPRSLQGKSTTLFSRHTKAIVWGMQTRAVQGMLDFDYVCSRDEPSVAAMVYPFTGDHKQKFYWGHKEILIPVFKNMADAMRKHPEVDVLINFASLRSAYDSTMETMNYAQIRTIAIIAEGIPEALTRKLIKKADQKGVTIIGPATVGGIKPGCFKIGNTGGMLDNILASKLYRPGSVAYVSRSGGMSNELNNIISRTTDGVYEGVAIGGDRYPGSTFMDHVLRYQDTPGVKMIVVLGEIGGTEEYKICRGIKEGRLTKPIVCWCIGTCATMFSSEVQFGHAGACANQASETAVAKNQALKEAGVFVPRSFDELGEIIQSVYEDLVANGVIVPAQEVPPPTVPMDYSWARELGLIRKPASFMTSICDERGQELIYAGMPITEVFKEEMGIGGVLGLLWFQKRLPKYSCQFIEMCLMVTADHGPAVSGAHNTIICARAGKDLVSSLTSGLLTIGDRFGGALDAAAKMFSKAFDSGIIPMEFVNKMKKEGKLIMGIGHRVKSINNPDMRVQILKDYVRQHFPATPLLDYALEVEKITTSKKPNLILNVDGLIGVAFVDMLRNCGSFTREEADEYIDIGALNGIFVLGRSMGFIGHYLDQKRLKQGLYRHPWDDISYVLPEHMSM
In words: pull-down; GST-ACLY or GST-ACLY deletion mutants bound to Glutathione Sepharose 4B, incubated with purified Flag-NAT10; WB with anti-Flag. The conditions noted are these: both partners purified.

B1: Flag-NAT10-His (natural protein, UniProt Q9H0A0 1-1025, looked up)
chain: MHRKKVDNRIRILIENGVAERQRSLFVVVGDRGKDQVVILHHMLSKATVKARPSVLWCYKKELGFSSHRKKRMRQLQKKIKNGTLNIKQDDPFELFIAATNIRYCYYNETHKILGNTFGMCVLQDFEALTPNLLARTVETVEGGGLVVILLRTMNSLKQLYTVTMDVHSRYRTEAHQDVVGRFNERFILSLASCKKCLVIDDQLNILPISSHVATMEALPPQTPDESLGPSDLELRELKESLQDTQPVGVLVDCCKTLDQAKAVLKFIEGISEKTLRSTVALTAARGRGKSAALGLAIAGAVAFGYSNIFVTSPSPDNLHTLFEFVFKGFDALQYQEHLDYEIIQSLNPEFNKAVIRVNVFREHRQTIQYIHPADAVKLGQAELVVIDEAAAIPLPLVKSLLGPYLVFMASTINGYEGTGRSLSLKLIQQLRQQSAQSQVSTTAENKTTTTARLASARTLYEVSLQESIRYAPGDAVEKWLNDLLCLDCLNITRIVSGCPLPEACELYYVNRDTLFCYHKASEVFLQRLMALYVASHYKNSPNDLQMLSDAPAHHLFCLLPPVPPTQNALPEVLAVIQVCLEGEISRQSILNSLSRGKKASGDLIPWTVSEQFQDPDFGGLSGGRVVRIAVHPDYQGMGYGSRALQLLQMYYEGRFPCLEEKVLETPQEIHTVSSEAVSLLEEVITPRKDLPPLLLKLNERPAERLDYLGVSYGLTPRLLKFWKRAGFVPVYLRQTPNDLTGEHSCIMLKTLTDEDEADQGGWLAAFWKDFRRRFLALLSYQFSTFSPSLALNIIQNRNMGKPAQPALSREELEALFLPYDLKRLEMYSRNMVDYHLIMDMIPAISRIYFLNQLGDLALSAAQSALLLGIGLQHKSVDQLEKEIELPSGQLMGLFNRIIRKVVKLFNEVQEKAIEEQMVAAKDVVMEPTMKTLSDDLDEAAKEFQEKHKKEVGKLKSMDLSEYIIRGDDEEWNEVLNKAGPNASIISLKSDKKRKLEAKQEPKQSKKLKNRETKNKKDMKLKRKK
notes: N-acetyltransferase 10 (NAT10), cloned into pFast-Bac1 as Flag-NAT10-His; also called purified Flag-NAT10; source: baculovirus-infected sf9 cells, purified (Ni-NTA agarose)
As to B1, the binding result was “binds”.

The record behind these values is publication PMC11291975, “Chemotherapy-induced acetylation of ACLY by NAT10 promotes its nuclear accumulation and acetyl-CoA production to drive chemoresistance in hepatocellular carcinoma” (Cell Death & Disease, 2024).
